The results in this text go back to patent publication US20200299380A1 (published 2020).

Experiment [1] concerns the target T1, MICB-Fc (R&D Systems 1599-MB) (human, UniProt Q29980 23-298, limits assumed).
T1 construct: Bought; also called human MICB-Fc; not shown: Fc of the bought fusion protein
T1 sequence: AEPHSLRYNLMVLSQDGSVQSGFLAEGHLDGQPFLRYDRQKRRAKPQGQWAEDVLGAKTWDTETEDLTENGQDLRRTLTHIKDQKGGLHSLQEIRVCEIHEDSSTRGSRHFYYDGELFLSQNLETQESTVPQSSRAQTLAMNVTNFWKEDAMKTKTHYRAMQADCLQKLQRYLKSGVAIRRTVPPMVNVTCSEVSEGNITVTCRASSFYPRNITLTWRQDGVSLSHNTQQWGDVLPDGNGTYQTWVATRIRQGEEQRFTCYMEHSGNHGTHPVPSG
The experiment can be described thus: SPR, antibody at 10 µg/ml injected over immobilized MICB-Fc. On the procedure:
(§1) For cross-binding study, the human ULBP-1-Fc (R&D systems*), MICB-Fc (*), ULBP-2-Fc (*) and ULBP-3-Fc (*) recombinant proteins were covalently immobilized respectively on the flow cell one to four of a CM5 sensorchip. Anti-MICA antibodies (at a constant concentration of 10 μg/ml) were injected for 2 minutes at a flow rate of 10 μl/min onto the four flow cells in parallel. After each cycle, Sensorchip was regenerated by a five second injection of appropriate regeneration buffer.
(In SPR one partner is held on a chip, and binding of the other changes the refractive index at the surface.)

Experiment [2] deals with T2, MICA*008 expressed at the cell surface (human, UniProt Q29983 24-297).
T2 construct: also called C1R-MICA*008; C1R-MICA*08
T2 chain: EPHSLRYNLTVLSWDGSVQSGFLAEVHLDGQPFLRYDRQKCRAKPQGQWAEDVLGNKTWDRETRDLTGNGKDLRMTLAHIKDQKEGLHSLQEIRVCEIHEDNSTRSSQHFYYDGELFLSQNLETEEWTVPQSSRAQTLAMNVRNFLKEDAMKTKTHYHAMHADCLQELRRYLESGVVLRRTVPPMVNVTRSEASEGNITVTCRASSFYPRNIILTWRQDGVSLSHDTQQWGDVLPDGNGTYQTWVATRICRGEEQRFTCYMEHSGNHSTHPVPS
The experiment can be described thus: flow cytometry on C1R transfectant cells, 4-parameter logistic fit. The protocol:
(§2) The binding of antibodies obtained from the first, second and third immunization series (including CHG1-M-MIA-19E9, CHG1-M-MIA-9C10, CHG1-M-MIA-6E4, CHG1-M-MIA-20C6, CHG1-M-MIA-16A8, CHG1-M-MIA-12A10, CHG1-M-MIA-10A7, CHG1-M-MIA-18E8, CHG1-M-MIA-10F3, CHG1-M-MIA-15F9 and CHG1-M-MIA-14B4) were tested for binding to MICA-expressing CR1 transfectant cells C1R-MICA*001, C1R-MICA*004, C1R-MICA*007 and C1R-MICA*008 (Pr. A. Steinle, Eberhard-Karls University Tuebingen, Germany) described in Salih et al. (2003) Blood 102(4): […]. Binding was analyzed by flow cytometry.
(§3) Cells were harvested and stained in PBS 1×/BSA 0.2%/EDTA 2 mM buffer during 30 minutes at 4° C. using a dose-range of the anti-MICA mAbs. After two washes in staining buffer, cells were stained for 30 min at 4° C. with mouse anti-human IgG1-PE monoclonal antibodies (1/11). After two washes, stainings were acquired on a BD FACS Canto II and analyzed using the FlowJo software.
(§4) Antibodies CHG1-M-MIA-19E9, CHG1-M-MIA-9C10, CHG1-M-MIA-6E4, CHG1-M-MIA-20C6, CHG1-M-MIA-12A10, CHG1-M-MIA-10A7, CHG1-M-MIA-18E8, CHG1-M-MIA-10F3, and CHG1-M-MIA-15F9 bound to each of the C1R-MICA*001, C1R-MICA*004, C1R-MICA*007 and C1R-MICA*008 cells (see FIG. 1A for antibodies CHG1-M-MIA-19E9, CHG1-M-MIA-9C10, CHG1-M-MIA-6E4, CHG1-M-MIA-20C6, CHG1-M-MIA-12A10, CHG1-M-MIA-10F3, and FIG. 1B for antibodies, CHG1-M-MIA-18E8, CHG1-M-MIA-15F9, CHG1-M-MIA-10A7). […] EC50 values are shown in Table C in μg/ml (calculated using a 4-parameter logistic fit).

For experiment [3], the target named is T3, MICA*004 expressed at the cell surface (human, UniProt Q29983 24-297).
T3 construct: also called C1R-MICA*004; C1R-MICA*04
T3 chain: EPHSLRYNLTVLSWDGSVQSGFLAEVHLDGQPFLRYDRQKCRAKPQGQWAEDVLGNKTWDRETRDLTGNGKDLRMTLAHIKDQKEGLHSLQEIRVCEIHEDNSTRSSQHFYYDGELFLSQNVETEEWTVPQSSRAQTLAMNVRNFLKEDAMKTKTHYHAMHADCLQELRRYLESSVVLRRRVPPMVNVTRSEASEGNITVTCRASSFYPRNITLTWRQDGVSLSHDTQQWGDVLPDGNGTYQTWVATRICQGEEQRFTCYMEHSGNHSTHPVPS
The experiment is described as above. On the procedure:
as §2, §3, §4

Experiment [4] deals with T4, MICA*001 expressed at the cell surface (human, UniProt Q29983 24-297).
T4 construct: the protein on cells also has its transmembrane and cytoplasmic parts (Genbank AAB41060); also called C1R-MICA*001; C1R-MICA*01
T4 sequence: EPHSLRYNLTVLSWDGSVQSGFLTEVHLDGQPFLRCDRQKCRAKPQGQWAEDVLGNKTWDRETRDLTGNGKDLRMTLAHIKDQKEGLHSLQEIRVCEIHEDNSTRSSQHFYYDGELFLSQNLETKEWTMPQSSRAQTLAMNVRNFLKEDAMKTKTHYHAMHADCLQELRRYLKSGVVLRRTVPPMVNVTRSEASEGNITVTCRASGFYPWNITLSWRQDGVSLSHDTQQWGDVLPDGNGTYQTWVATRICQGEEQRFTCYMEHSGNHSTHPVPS
Described as above. On the procedure:
as §2, §3, §4

Experiment [5] concerns the target T5, MICA*007 expressed at the cell surface (human, UniProt Q29983 24-297).
T5 construct: also called C1R-MICA*007; C1R-MICA*07
T5 chain: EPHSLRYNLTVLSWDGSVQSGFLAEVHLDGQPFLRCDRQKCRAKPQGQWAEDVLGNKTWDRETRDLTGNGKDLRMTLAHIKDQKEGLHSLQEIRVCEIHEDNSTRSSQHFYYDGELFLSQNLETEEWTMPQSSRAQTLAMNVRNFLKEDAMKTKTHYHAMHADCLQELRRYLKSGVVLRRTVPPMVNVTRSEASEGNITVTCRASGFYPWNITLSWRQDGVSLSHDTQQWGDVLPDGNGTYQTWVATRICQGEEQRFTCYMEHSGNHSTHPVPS
Described as above. On the procedure: as §2, §3, §4

The next experiment concerns the target T6, MICA*001-BirA (human, UniProt Q29983 24-297).
T6 construct: also called MICA-BirA; MICA*01-BirA; not shown: BirA tag
T6 sequence: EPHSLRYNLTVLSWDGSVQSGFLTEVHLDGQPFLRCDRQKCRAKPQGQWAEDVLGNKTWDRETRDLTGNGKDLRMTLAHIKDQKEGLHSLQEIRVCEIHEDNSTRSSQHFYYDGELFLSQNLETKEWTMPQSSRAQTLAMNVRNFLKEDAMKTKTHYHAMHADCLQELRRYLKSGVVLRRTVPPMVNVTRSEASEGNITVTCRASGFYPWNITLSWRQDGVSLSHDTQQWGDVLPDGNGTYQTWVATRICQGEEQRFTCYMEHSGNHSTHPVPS
The experiment can be described thus: SPR single cycle kinetics, monovalent mean KD at pH 7.4, antibody captured on Protein-G chip, MICA-BirA injected. On the procedure: For monovalent affinity measurement, chimeric anti-MICA antibodies were captured onto a Protein-G chip.
Affinities were determined using single cycle kinetics (SCK). SCK cycles were as follows: Successive 120s injections at 30 μl/min of 5 serial dilutions (0.01 to 100 nM) of MICA-His or MICA-BirA in ascending order (or of buffer for the blank injections to be subtracted during the analysis). After the last concentration is injected, complex is left to dissociate for 600s before regeneration by a 10s injection of appropriate regeneration buffer at 40 μl/min. After the regeneration, chip is left to stabilise for 60s in running buffer. Curves are fitted using Biacore T100 Evaluation software.

The target in experiment [6] is T7, human ULBP-3-Fc (R&D systems) (human, UniProt Q9BZM4 30-217, limits assumed).
T7 construct: Bought; not shown: Fc of the bought fusion protein
T7 sequence (looked up): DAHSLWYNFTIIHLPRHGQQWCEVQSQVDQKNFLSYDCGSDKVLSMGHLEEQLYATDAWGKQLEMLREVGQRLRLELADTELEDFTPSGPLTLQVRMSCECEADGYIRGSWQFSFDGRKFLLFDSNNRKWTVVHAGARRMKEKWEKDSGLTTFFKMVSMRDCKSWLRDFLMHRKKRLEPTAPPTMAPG
The experiment can be described thus: SPR, antibody injected over immobilized ULBP-3-Fc. On the procedure:
as §1

In experiment [7] the target is T8, human ULBP-2-Fc (R&D systems) (human, UniProt Q9BZM5 26-217, limits assumed).
T8 construct: Bought; not shown: Fc of the bought fusion protein
T8 sequence (looked up): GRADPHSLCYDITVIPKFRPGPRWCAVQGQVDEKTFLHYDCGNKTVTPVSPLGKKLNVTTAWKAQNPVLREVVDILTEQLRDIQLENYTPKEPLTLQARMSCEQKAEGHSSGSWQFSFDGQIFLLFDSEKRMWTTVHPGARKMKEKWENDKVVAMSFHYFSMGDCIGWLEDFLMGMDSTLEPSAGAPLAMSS
As to the kind of experiment: SPR, antibody injected over immobilized ULBP-2-Fc. On the procedure:
as §1

The target in experiment [8] is T9, human ULBP-1-Fc (R&D systems) (human, UniProt Q9BZM6 26-216, limits assumed).
T9 construct: Bought; not shown: Fc of the bought fusion protein
T9 sequence (looked up): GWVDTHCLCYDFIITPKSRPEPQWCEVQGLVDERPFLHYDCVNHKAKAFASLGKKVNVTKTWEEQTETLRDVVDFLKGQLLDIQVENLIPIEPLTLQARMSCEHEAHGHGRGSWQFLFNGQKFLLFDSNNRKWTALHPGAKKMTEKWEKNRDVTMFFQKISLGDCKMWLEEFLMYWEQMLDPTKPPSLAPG
The experiment can be described thus: SPR, antibody injected over immobilized ULBP-1-Fc. The protocol: as §1

B1: CHG1-M-MIA-18E8 (antibody, human IgG1, V domains shown)
VH: DVQLQESGPDLVNPSQSLSLICTVTGYSITSDYSWHWIRQFPGNKLEWMGNIHYSGRINYNPSLRSRISITRDTSKNQFFLQLISVTTEDTATYYCATRRTFGNFEDYWGQGTTLTVSS
VL: QIVLSQSPATLSVSPGEKVTMTCRSSSSVNYMHWYQQKPGSSPKPWIYATSTLASGVPARFSGSGSGTSYSLTISRVEAEDAATYYCQQWSSNPLTFGAGTKLELK
notes: the VH entry ends with ASTK
With B1, the binding result in experiment [1] is “binds”. In addition, the EC50 in experiment [2] turned out to be 0.24 µg/mL; in [3] it was 0.15 µg/mL; in experiment [4] it was 0.5 µg/mL; in experiment [5], 0.3 µg/mL. The same molecule had a Kd in the experiment with MICA*001-BirA of 54 nM.

B2: CHG1-M-MIA-15F9 (antibody, human IgG1, V domains shown)
VH: DVQLQESGPDLVKPSQSLSLTCTVTGYSITSGYSWHWIRQFPGNKLEWMGFIHYSGSTDYNPSLKSRISLTRDTSKNQFFLQLNSVSTEDTATYYCAKDYGHWYFDVWGAGTTVTVSS
VL: SIVMTQTPKFLLVSAGDRVTITCKASQSVSYDVAWYQQKPGQSPKLLIFYASNRYTGVPARFTGSGYGTDFTFTISTVQAEDLAVYFCQQDYSSLTFGAGTKLELK
notes: the VH entry ends with ASTK
On to B2, for which the binding result in [1] is listed as “binds”. The EC50 is 0.79 µg/mL in experiment [2], 0.43 µg/mL in experiment [3], 0.68 µg/mL in [4] and 1.81 µg/mL in [5]. In the experiment with MICA*001-BirA, this molecule displayed a Kd of 61 nM.

B3: CHG1-M-MIA-10F3 (antibody, human IgG1, V domains shown)
VH: QVQLQQSAAELARPGASVKMSCKASGYTFTSYTMHWVKQRPGQGLEWIGYINPSSGYTEYNQKFKDKTTLTVDKSSTTSYMQLSSLTSDNSAVYYCARGGDWDVDWFVYWGQGTLVTVSA
VL: QIVLTQSPAIMSASPGEKVTITCSASSSISYMHWFQQKPGTSPKLWIYSTSKLASGVPARFSGSGSGTSHSLTISRMEAEDAATYYCQHRSTYPFTFGSGTKLEIK
notes: the VH entry ends with ASTK
For B3, the binding result in [1] was “binds”. In addition, the EC50 in [2] was determined as 0.26 µg/mL; in experiment [3], 0.17 µg/mL; in experiment [4] it was 0.47 µg/mL; in experiment [5] it was 0.94 µg/mL. The affinity with MICA*001-BirA, expressed as Kd, was 8.3 nM.

B4: CHG1-M-MIA-19E9 (antibody, human IgG1, V domains shown)
VH: DVQLQESGPGLVKPSQSLSLTCTVTGYSITSDYAWNWIRQFPGNKLEWMGFVSYSGTTKYNPSLKSRISITRDTSENQFFLQLNSVTSEDTATYYCARGYGFDYWGQGTTLTVSS
VL: EIVLTQSPTTMAASPGEKITITCSATSSISSIYFHWYQQRPGFSPKLLIYRTSNLASGVPARFSGSGSGTSYSLTIGTMEAEDVATYYCQQGTTIPFTFGSGTKLEIK
notes: also called chimeric anti-MICA 19E9
Consider B4, for which the binding result in experiment [6], in experiment [7] and in experiment [8] was “no binding (tested: 10 µg/ml)” in each case.

The term EC50 denotes the concentration at which the effect is half-maximal. For orientation: Kd means a measure of binding affinity in units of concentration.
